The record followed here is a protein production outcome set (Wang et al. 2014).

This data set can be described thus: label from the status in PepcDB records.
“MKLKTFLIVGCLGGLFTLSSCTAPTNVKDYSAYVNPFIGTGGHGHTFPGAVVPHGMIQPSPDTRIDGWDACSGYYYADSTINGFSHTHVSGTGCCDYGDVLLMPTVGKQQYRTTDPQSQRLAYASSFSHKNEIAEPGYYSVFLDTYQVKAEISSTKRGAIHRYTFPENTESGFIIDLDYSLQRQTNSEMEIEVISDTEICGHKKTTYWAFDQYINFYAKFSKPFSYTLVTDSITMDNGKRLPVCKALLHFNTSKDEQVLVKVGVSAVDIAGARKNVESEIPGWDFEKVRKDARTAWNEYLSKIDITTSDKEDKAIFYTALYHTGISPNLFTDADGRYLGMDLEVHQGDTLNPIYTVFSLWDTFRALHPLMTIIDPDLNNHFINSLIKKHQEGGIYPMWDLASNYTGTMIGYHAVPVIVDAYMKGYRNFDTKEAYKACLRAAEYDTTGIKCPDLVLPHLMPKAKYYKNAIGYIPCDRENESVAKALEYAYDDWCISIFAEAMSDFESKAKYERFAKAYEFYFDKSIRFMRGLDSKGEWRTPFNPRASTHRSDDYCEGTAWQWTWFVPHDVEGLVNLMGGEDAFVQKLDSLFSADSSLEGETTSSDISGLIGQYAHGNEPSHHVIHLYNYVNHPWRTQELVDSVYRSQYANSIEGLSGNEDCGQMSAWYILNSMGFYQVCPGKPVYSIGRPAFDKAVINLPEGKTFSIVVKNNGKKNKYIESVLLNGKALNIPFFNHQDIANGGTMEIKMTDHPTKWGVLSPALSSKEEE”: the protein production entry was “failed”.

Turning to “MTKILAIIGARLNSSRLAGKHLLPLACDAAGNTLPIIGHILRRLKTCSTISSIELATTADEFNQPLINWAQENQLTCVPFEGDVNDLMGRLDRIIQRQQPDYIVYICGDCPLIDPNFIDHALLALKASDKDTITLKEGIISLHEGIGFYTRSGWNRLMAVSDCVMSREHVGYGDKLRPVLTKLYIDDSGNYGKITHRISVDTHADYRFMVEVYRRWYVNNPTETVVSLEWVQEELLKDSALFAINAHVQQKAANKNYAKASIYCHLGPQIGLGHFKRSELIANALQEHLSLGVNIHAYSEAGQRLDSSSKVVWHEDEQALLSALTEDQNPLVLLDFHPNFIDLESFANRLAGLAKHGAKRIGIDKMAPLLDELDWLFIPSFNSPTHHPKISAGWRNYLFSTIPQATKQAQILVLTGGSDALGYGRELPTILDSIGTDWPILWIQGPLAPAPQLTPNSAIVVQQNPDNLKEIIAQSEIILSCYGLSLFESIYGKAATLLLPPQHLCDEAELFALNQERCCLVSDSLEEAKMMLQQLLTEPEQRRSLQNQATRVFESHQGIQALIDDIHHLLGAVN”, the protein production entry is given as “failed”.

With “MSGGLVALLDDVAALARIAAASVDDIAAGAAKAGAKAAGVVIDDAAVTPQYVSGADPSRELPMIKRIFWGSLRNKLLIILPALLLVSAFIPGVIPFILMLGGTYLCYEGAEKVWHKLRGHSATEKAPAVQRGPEAEAKVTKGAITTDFILSCEIMVIAMNEVADESLWVRALILVVVAFVITVVVYGAVGLIVKMDDIGLHLTTKASSGSQRFGRLLVKGMPAVLAAITLIGTIAMLWVGGHIMLQGAYDLGWHAPYDLVHVLETPFAGIPVAGGFLAWLVNTLCSAILGAVWGLVIMVILHPLLKVLPFGKKHEGHEEGDVRAAIAGYRPAKSKPTR”, the protein production entry is given as “failed”.

Consider “MAQYPEQLNGIFQALADPTRRAVLGRLSRGPATVSELAKPFDMALPSFMKHIHFLEDSGWIRTHKQGRVRTCAIEKEPFTAVEAWLAEQQELWESRTDRLEQFVTEHTVTAHAKATPQ”, for which the protein production result was “not failed”.

Regarding “MHRKPICAALAIISAATLTTSLAYGMTAVELPAGAPADKPVGKLEQVQAFYDAMPTGVTVTETGRIFVNFPRWGDKVPFTVGEVRDGKVVAYPDLAVNHENPKDPGDGLISVQSVVADGKGRVWLLDTAAPEFAAPRPQGAKLVAVDLATNKIVKRLVFPDNVILPSTYVNDMRFDFRQGSQGTVYVTDSSVSGPGAIIVMDIASGHAVRRLSGAKATSADPAFVPVVEGVPVLGDGPDGTRKPVHVAADGIALSADGKTLYFSPLSSRHLYSVATELLNDSAVNEQQLAAAVQDLGEKGASDGLEADADGAVYAGDYEHNAIRKRLPNGVWQTVAHDPRMLWPDTLSIGPDGYLYFIVNQLHRQAGFNSGHDQRKKPYSLLRVKVATAPAPTH”, the protein production entry was “failed”.

For “MPTYSAMANTDGGIVILGVRERKGQFEVAGIENPDKLRTELFNHLNNRQKVSVNLLRDEDVRAWPVEGKTLLVVEIPRARRQQRPVYLRGNPLGGHTYRRLHEGDRPLEHHHHHH”, the protein production result was “failed”.

As to “MADSSRADFWEQRYREGVTPWEGGQLPPRARAFFAAQRPLRVLMPGCGSAADLPPLLAMGHDVLAVDFSEAAIELAARQWPEAAGRLLLADFFQLQMPAFDCLFERAFLCALPVGMRSQYAERVAALIAPGGALAGVFFVADTERGPPFGMQAEALRELLSPWFELEEDLALDESVAVFRNRERWMVWRRRGFDLGQVSEHESTGNCGAHRKE”, the protein production entry was “failed”.

On to “MLAVGIVGLPNVGKSTLFNALTRANALAANYPFATIDKNVGVVPLEDERLYALQRTFAKGERVPPVVPTHVEFVDIAGLVKGAHKGEGLGNQFLAHIREVAAIAHVLRCFPDPDVVHVMGRVDPLEDAEVVETELLLADLATLERRLERLRKEARADRERLPLLEAAEGLYVHLQEGKPARTFPPSEAVARFLKETPLLTAKPVIYVANVAEEDLPDGRGNPQVEAVRRKALEEGAEVVVVSARLEAELAELSGEEARELLAAYGLQESGLQRLARAGYRALDLLTFFTAGEKEVRAWTVRRGTKAPRAAGEIHSDMERGFIRAEVIPWDKLVEAGGWARAKERGWVRLEGKDYEVQDGDVIYVLFNA”, for which the protein production result was “not failed”.

Consider “MGGLFVTPAKAVKTTNYAEEIAALQPGTTPEEIMKSASQIAKQQHVKQDVILKQFYKEITADKAEGDRLAKESGMSIMGGSSGTKKLPTSAKGNIYYTNSYTAYYNHGHVGMYSAADKIVESVPSDGVRQIAYNARDVEDNSIVQTVSVSSSQKTAAADWAVSKVGDPYSFNFVNNRNTGHDGAKNCSKLLWSAFLLKAGIDIDSNGGLGVYPRDITSSSYTTTIMTIYLEHHHHHH”, for which the protein production result is recorded as “failed”.

In the case of “MSLFPGDIEELARRIITDFTPLGLMVSTAESCTGGLIAGALTEIAGSSAVVDRGFVTYTNDAKRDMLGVGTETLTTFGAVSRQTALQMAHGALYRSRANFAVAVTGIAGPGGGSAEKPVGLVHLATKARNGNVLHHEMRYGDIGRTEIRLATVRTALEMLIALNQAGSV”, the protein production result is recorded as “not failed”.

For the sequence “MDDLNPLAGTAHLLEEVDKKLMVLLRDGRTLIGYLRSVDQFANLVLQRTIERIHVGNEYGDIPRGVFIIRGENVVLLGEIDREKEQKLPLKEISVDEILDAQRREQEQRQEKHRLVSKALKERGLAVDANIINEDFC”, the protein production entry is “failed”.

As for “MSQNVISQPVEAQQSFARAVTESLPGLLLVCAVALVASFVAPKLEAYPLFKTYLSLKDFILAIIFGIIIRNTVGVPAVFQPGLRYSTIMTKTGIVIMGSSYSLAGLVSVGAQALVFIAVFLFGTALVMMWLCRKVGMSTPLAACLAAGMSVCGVSATIAIAPAVKAKNEDMAYSIAVVLMFGLLALIAFPLIGKVFNLTPEQFGAFAGVGIVNSAQVLAAGFGFSQEAGIVAGIYNIGRVVFLPFVVLMLAIMAAAQEAEQGNEVAKINKWQMIRDKFPLFVLGFLAIVCLNTAGVLTKPEVKMAKHFMEWAFLLGFASIGLTTRLSDLRAAGLNGFLFGFGVAGLKAALALAAVLLFMS”, the protein production entry is given as “failed”.

Turning to “MSVTSRYRDAWEGFWNEASGDRGAVFWDAEPTLTAGRHLAHFEPHLTDAALPLIDLGCGNGTQTRYFAERFPHVVGADLSAAALAHARHADPGGLAAYRQLDAADKAEAQALHAELGDANVYVRGVLHQCEPDDRQPLADALAALLGERGRAFLVEPSQAAKTVLMGLAQGPAGPPAKLAPVLRHGLTPGAVPDEAVPEYLRAAGLTVLASGELPLVTTEYTADGTRIELPSAWVVAGTA”, the protein production result is on record as “failed”.
